Reference: publication PMC6314159

Target: TP53 (Homo sapiens) (UniProt P04637)
Assay: EMSA-seq

Chain of TP53 (Homo sapiens) (P04637 whole entry): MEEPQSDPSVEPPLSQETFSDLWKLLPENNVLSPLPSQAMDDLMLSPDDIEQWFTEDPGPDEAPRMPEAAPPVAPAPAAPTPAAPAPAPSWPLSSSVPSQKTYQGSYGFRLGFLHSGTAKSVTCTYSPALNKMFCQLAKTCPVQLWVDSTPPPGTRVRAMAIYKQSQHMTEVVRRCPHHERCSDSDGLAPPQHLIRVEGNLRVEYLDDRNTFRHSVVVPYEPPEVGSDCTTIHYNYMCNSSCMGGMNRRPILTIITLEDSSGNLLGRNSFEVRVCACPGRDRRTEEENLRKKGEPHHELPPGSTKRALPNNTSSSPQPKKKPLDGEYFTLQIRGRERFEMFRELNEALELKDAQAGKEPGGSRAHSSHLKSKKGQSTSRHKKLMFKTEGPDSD

Sequence: GATGGACCCTATACGCGGCCGCCCTGGAGAATCCCGGTGCCGAGGCCGCTCAATTGGTCGTAGACAGCTCTAGCACCGCTTAAACGCACGTACGCGCTGTCCCCCGCGTTTTAACCGCCAAGGGGATTACTCCCTAGTCTCCAGGCACGTGTCAGATATATACATCCTGTGCGGGCATGTCCGGGCATGTCCGCCGGTGCCAGTCGGATAGTGTTCC (double strand) [High SHL 8 nucleosome (linker)]
- Kd: 19 nM
